Assay results taken from publication PMC6796855.

Biological target: GST-ATG16L1N (human) (UniProt Q676U5)
Experiment: pull-down; recombinant GST fusion (2–200 nM) on glutathione resin, incubated with 1.5 mg of a 1:3.5 mixture of wild-type and ATG7 KO PC-3 lysates; 20 mM Tris-HCl pH 8.0, 200 mM NaCl, 1 mM EDTA, 0.5% NP-40; immunoblot for GST and ATG5; fraction bound quantified

Chain of GST-ATG16L1N (human) (Q676U5 1-69): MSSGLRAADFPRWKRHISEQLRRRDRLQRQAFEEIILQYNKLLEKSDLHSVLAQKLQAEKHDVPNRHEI
Chain of native ATG12–ATG5 conjugate (Q9H1Y0 whole entry): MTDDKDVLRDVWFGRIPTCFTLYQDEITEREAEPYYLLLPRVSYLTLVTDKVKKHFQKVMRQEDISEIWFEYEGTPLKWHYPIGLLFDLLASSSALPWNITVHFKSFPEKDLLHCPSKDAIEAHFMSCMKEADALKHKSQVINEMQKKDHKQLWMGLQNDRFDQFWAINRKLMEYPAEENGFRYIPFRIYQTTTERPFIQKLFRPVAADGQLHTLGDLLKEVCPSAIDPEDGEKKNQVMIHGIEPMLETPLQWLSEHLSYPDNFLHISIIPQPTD
Chain of native ATG12–ATG5 conjugate (O94817 whole entry): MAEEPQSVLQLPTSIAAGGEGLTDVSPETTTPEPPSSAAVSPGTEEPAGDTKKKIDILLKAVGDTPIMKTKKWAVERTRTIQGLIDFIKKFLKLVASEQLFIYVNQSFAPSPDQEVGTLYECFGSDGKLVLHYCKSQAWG

- fold higher affinity than unconjugated ATG5: 10 fold
Substance: native ATG12–ATG5 conjugate (from UniProt Q9H1Y0 1-275; O94817 1-140) (complex)
